Source: paper PMC11813800, “A concept of natural genome reconstruction.Part 2. Effect of extracellular double-stranded DNA fragments on hematopoietic stem cells”

Key:
[1] = target: CD34 (UniProt P28906 32-290); assay: EMSA; 10 mM PBS buffer, 37 °C, various ratios and times; native PAGE (6 % or 10 % tris-borate); pH not given; conditions: label: P32; blunt
[2] = target: T1, SLAMF5 (CD84) (UniProt Q9UIB8 22-225); assay: as above; conditions: label: P32; blunt
T1 sequence: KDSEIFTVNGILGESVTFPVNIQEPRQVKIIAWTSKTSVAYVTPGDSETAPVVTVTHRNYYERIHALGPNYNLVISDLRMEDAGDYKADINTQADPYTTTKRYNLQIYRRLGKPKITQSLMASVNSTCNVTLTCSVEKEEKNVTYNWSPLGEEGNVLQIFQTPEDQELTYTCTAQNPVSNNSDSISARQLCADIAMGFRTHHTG

CD34, sequence (P28906 32-290): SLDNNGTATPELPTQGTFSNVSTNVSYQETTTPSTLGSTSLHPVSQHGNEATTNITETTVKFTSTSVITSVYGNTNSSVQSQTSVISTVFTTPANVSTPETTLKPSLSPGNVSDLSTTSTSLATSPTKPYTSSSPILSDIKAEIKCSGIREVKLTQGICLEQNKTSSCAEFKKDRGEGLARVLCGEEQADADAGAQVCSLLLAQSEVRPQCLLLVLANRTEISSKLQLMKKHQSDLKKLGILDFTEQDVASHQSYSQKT

B1: (TTAGGG)9 telomeric repeat, 54 bp (dsDNA)
DNA 1: TTAGGGTTAGGGTTAGGGTTAGGGTTAGGGTTAGGGTTAGGGTTAGGGTTAGGG
DNA 2: CCCTAACCCTAACCCTAACCCTAACCCTAACCCTAACCCTAACCCTAACCCTAA
binding result [1]: binds | binding result [2]: binds
